# In article PMC3107238:
# Target: plasma proteins (rat (endogenous in serum))
# Test: SEC
substance,measurement,value
L56A mutant of sTEM8 (from UniProt Q9H6X2 38-220) (domain or fragment),percent plasma protein binding,> 90%
soluble vWA domain of tumor endothelium marker-8 (sTEM8) (from UniProt Q9H6X2 38-220) (domain or fragment),percent plasma protein binding,> 90%
